Data from patent US20220144922A1.

How the values were obtained:
[1] = target: HMPV F protein (NL/1/00, A1 sublineage), on virus (human metapneumovirus); assay: cell-based or functional assay
[2] = target: RSV F protein of subtype A strain A2, on virus (respiratory syncytial virus subtype A strain A2) (UniProt P03420); assay: cell-based or functional assay
Sequence of RSV F protein of subtype A strain A2, on virus (respiratory syncytial virus subtype A strain A2) (P03420 26-574): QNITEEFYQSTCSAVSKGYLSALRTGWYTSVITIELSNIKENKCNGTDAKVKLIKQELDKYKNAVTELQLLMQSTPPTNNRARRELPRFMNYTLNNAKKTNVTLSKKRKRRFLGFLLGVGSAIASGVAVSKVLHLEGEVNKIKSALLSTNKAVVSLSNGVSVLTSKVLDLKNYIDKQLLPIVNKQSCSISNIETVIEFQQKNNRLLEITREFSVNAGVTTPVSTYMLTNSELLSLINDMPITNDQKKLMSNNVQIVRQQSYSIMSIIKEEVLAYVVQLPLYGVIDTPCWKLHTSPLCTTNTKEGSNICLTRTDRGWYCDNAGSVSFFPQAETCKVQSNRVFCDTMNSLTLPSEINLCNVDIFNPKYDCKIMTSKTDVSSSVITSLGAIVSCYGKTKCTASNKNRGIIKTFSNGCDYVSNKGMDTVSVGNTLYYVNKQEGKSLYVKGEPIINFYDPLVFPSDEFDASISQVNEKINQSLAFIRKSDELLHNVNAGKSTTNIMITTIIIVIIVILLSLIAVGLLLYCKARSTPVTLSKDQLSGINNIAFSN

## MPE8 (antibody)
[1]
  HMPV-A1 IC50: 0.07 µg/mL
[2]
  RSV-A2 IC50: 0.04 µg/mL
